We go through five molecules from article PMC8708005, “Poly(C)-binding Protein 2 Regulates the p53 Expression via Interactions with the 5′-Terminal Region of p53 mRNA”.

In data set [1] the target is T1, PCBP2 (poly(C)-binding protein 2, hnRNP E2) (UniProt Q15366 1-365). As to the kind of experiment: EMSA; no complex at 4-4000 nM; smeared shift at 5 and 10 uM; EMSA: 25 mM NaH2PO4 pH 8.0, 50 mM NaCl, 25 mM KCl, 2.5 mM MgCl2, 10 mM imidazole, 0.5 mM DTT, 0.5 mM PMSF, 7% glycerol, 0.5 U/uL RNasin, 75 ng/uL BSA, 100 ng/uL yeast tRNA; 4 °C 25 min (also 25 °C 15 min, 37 °C 10 min). The following applies: protein: recombinant; label: 5'-32P; hairpin. (In general: Mobility shift assays separate free from complexed probe on a gel.)
T1 sequence (Q15366 whole entry): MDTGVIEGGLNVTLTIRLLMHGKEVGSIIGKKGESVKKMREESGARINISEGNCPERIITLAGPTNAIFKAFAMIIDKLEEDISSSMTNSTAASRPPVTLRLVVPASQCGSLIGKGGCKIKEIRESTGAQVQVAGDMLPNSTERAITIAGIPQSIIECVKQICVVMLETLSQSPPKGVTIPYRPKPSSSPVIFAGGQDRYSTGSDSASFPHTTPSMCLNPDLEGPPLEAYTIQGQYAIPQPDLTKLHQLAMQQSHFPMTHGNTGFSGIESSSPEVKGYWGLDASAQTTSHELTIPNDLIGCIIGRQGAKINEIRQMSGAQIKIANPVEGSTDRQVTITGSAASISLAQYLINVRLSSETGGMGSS

The target of data set [2] is T1, PCBP2 (poly(C)-binding protein 2, hnRNP …). Kind of data set: EMSA; 4 °C 25 min, 2.5 mM Mg2+, yeast tRNA and BSA; EMSA: 25 mM NaH2PO4 pH 8.0, 50 mM NaCl, 25 mM KCl, 2.5 mM MgCl2, 10 mM imidazole, 0.5 mM DTT, 0.5 mM PMSF, 7% glycerol, 0.5 U/uL RNasin, 75 ng/uL BSA, 100 ng/uL yeast tRNA; 4 °C 25 min (also 25 °C 15 min, 37 °C 10 min). The following applies: protein: recombinant; label: 5'-32P (EMSA); hairpins G56-C169 and U180-A218.

Data set [3] shares this target. Kind of data set: EMSA; 1000 and 2500 nM PCBP2, 4 °C; no change vs P1-Δ40p53; EMSA: 25 mM NaH2PO4 pH 8.0, 50 mM NaCl, 25 mM KCl, 2.5 mM MgCl2, 10 mM imidazole, 0.5 mM DTT, 0.5 mM PMSF, 7% glycerol, 0.5 U/uL RNasin, 75 ng/uL BSA, 100 ng/uL yeast tRNA; 4 °C 25 min (also 25 °C 15 min, 37 °C 10 min). The conditions noted are these: protein: recombinant, label: 5'-32P.
Data set [4] shares this target. As to the kind of experiment: EMSA; 4 °C 25 min, 2.5 mM Mg2+; additional intermediate complexes; text also reports decreased binding ability at fixed protein (Fig 3c); EMSA: 25 mM NaH2PO4 pH 8.0, 50 mM NaCl, 25 mM KCl, 2.5 mM MgCl2, 10 mM imidazole, 0.5 mM DTT, 0.5 mM PMSF, 7% glycerol, 0.5 U/uL RNasin, 75 ng/uL BSA, 100 ng/uL yeast tRNA; 4 °C 25 min (also 25 °C 15 min, 37 °C 10 min). The following applies: protein: recombinant; label: 5'-32P; shortened hairpin; C74-G144 pair replaces U57-G168.

B1: isolated hairpin G56-C169 RNA (structured_RNA)
RNA: GUUCGGGCUGGGAGCGUGCUUUCCACGACGGUGACACGCUUCCCUGGAUUGGCAGCCAGACUGCCUUCCGGGUCACUGCCAUGGAGGAGCCGCAGUCAGAUCCUAGCGUCGAGC
Turning to B1, in data set [1], the Kd is above 4000 nM.

B2: P1-Δ40p53 RNA (structured_RNA)
RNA: GGCUAGAGCCACCGUCCAGGGAGCAGGUAGCUGCUGGGCUCCGGGGACACUUUGCGUUCGGGCUGGGAGCGUGCUUUCCACGACGGUGACACGCUUCCCUGGAUUGGCAGCCAGACUGCCUUCCGGGUCACUGCCAUGGAGGAGCCGCAGUCAGAUCCUAGCGUCGAGCCCCCUCUGAGUCAGGAAACAUUUUCAGACCUAUGGAAACUACUUCCUGAAAACAACGUUCUGUCCCCCUUGCCGUCCCAAGCAAUG
Consider B2, for which the equilibrium dissociation constant (Kd) in data set [2] amounted to 95 ± 6 nM.

B3: P1-Δ40p53(S) RNA (structured_RNA)
RNA: GGCUAGAGCCACCGUCCAGGGAGCAGGUAGCUGCUGGGCUCCGGGGACACUUUGCGUUCGGGCUGGGAGCGUGCUUUCCAUGGCGGUGACACGCUUCCCUGGAUUGGCAGCCAGACUGCCUUCCGGGUCACUGCCAUGGAGGAGCCGCAGUCAGAUCCUAGCGUCGAGCCCCCUCUGAGUCAGGAAACAUUUUCAGACCUAUGGAAACUACUUCCUGAAAACAACGUUCUGUCCCCCUUGCCGUCCCAAGCAAUG
For B3, the binding result in data set [3] (AUG1 in double-stranded region) is “binds”.

B4: P1-Δ40p53(L) RNA (structured_RNA)
RNA: GGCUAGAGCCACCGUCCAGGGAGCAGGUAGCUGCUGGGCUCCGGGGACACUUUGCGUUCGGGCUGGGAGCGUGCUUAAGCCGACGGUGACACGCUUCCCUGGAUUGGCAGCCAGACUGCCUUCCGGGUCACUGCCAUGGAGGAGCCGCAGUCAGAUCCUAGCGUCGAGCCCCCUCUGAGUCAGGAAACAUUUUCAGACCUAUGGAAACUACUUCCUGAAAACAACGUUCUGUCCCCCUUGCCGUCCCAAGCAAUG
As for B4, the binding result in data set [3] (AUG1 in internal loop) was “binds”.

B5: P1-Δ40p53(Δ57) RNA (structured_RNA)
RNA: GGCUAGAGCCACCGUCCAGGGAGCAGGUAGCUGCUGGGCUCCGGGGACACUUUGCGCUUUCCACGACGGUGACACGCUUCCCGGUCACUGCCAUGGAGGAGCCCCCUCUGAGUCAGGAAACAUUUUCAGACCUAUGGAAACUACUUCCUGAAAACAACGUUCUGUCCCCCUUGCCGUCCCAAGCAAUG
As to B5, the Kd in data set [4] is 53 ± 6 nM.

For orientation: Kd means the concentration at which binding is half-saturated.
